Results taken from patent US20240132599A1.
Where two headings read alike, the source gives them in different places. Each block holds one binder with its values, some of them ahead of it.

Tests used:
[1] = target: Vδ1 TCR on human Vδ1-positive γδ T cells (human), A0A1B0; details: scale: nM
[2] = target: Vδ1 TCR on human Vδ1-positive γδ T cells (human), A0A1B0
[3] = target: Vδ1 TCR on human Vδ1-positive γδ T cells (human), A0A1B0; remark: listed apart in the source
[4] = target: Vδ1 TCR on human Vδ1-positive γδ T cells (human), A0A1B0; remark: listed apart in the source

Vδ1 TCR on human Vδ1-positive γδ T cells (human), A0A1B0, sequence (A0A1B0 entry or part of it mutant limits assumed): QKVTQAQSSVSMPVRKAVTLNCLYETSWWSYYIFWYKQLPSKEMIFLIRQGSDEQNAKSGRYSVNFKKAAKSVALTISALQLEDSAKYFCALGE

- IC50 of Vδ1 TCR downregulation (% MFI of anti-Vδ1 staining after 2 h, two γδ cell donors) [1]: 22.4
B1: ADT1-7 (parental) (antibody, IgG1, V domains shown)
VH: QVQLVESGGGLVKPGGSLRLSCAASGFTFSDYYMSWIRQAPGKGLEWVSYISSSGSTIYYADSVKGRFTISRDNAKNSLYLQMNSLRAEDTAVYYCARVDYADAFDIWGQGTLVTVSS
VL: ASDIQMTQSPSSLSASVGDRVTIACRAGQSIGTYLNWYQQKPGKAPKLLIYVASSLQSGVPSRFSGSGSGTEFTLTISSLQPEDFATYYCQQSYSTLLTFGRGTKVEIK

- Vδ1 TCR down-regulation (A375 co-culture): % change (at EC100 saturation) [2]: 96.8%
- Vδ1 TCR down-regulation (A375 co-culture): EC50 [2]: 0.00095 nM
- Vδ1 TCR down-regulation (A375 co-culture): % change (at saturation) [3]: 102%
- Vδ1 TCR down-regulation (A375 co-culture): EC50 [3]: 0.00142 nM
- Vδ1 TCR down-regulation (A375 co-culture): EC95 [3]: 0.0379 nM
B2: ADT1-4-2/ADT3-2 (bispecific antibody)
heavy: EVQLQQSGPGLVKPSQTLSLTCAISGDSVSSKSAAWNWIRQSPSRGLEWLGRTYYRSKWSTDYAASVKSRITINPDTSKNQLSLQLNSVTPEDTAVYYCARTWVGYVDRWGQGTLVTVSSASTKGPSVFPLAPSSKSTSGGTAALGCLVKDYFPEPVTVSWNSGALTSGVHTFPAVLQSSGLYSLSSVVTVPSSSLGTQTYICNVNHKPSNTKVDKKVEPKSCDKTHTCPPCPAPELAGAPSVFLFPPKPKDTLMISRTPEVTCVVVDVSHEDPEVKFNWYVDGVEVHNAKTKPREEQYNSTYRVVSVLTVLHQDWLNGKEYKCKVSNKALPAPIEKTISKAKGQPREPQVYTLPPSRDELEEGPVSLTCLVKGFYPSDIAVEWESTYGPENNYKTTPPVLDSDGSFFLYSKLTVSYWRWYKGNVFSCSVMHEALHNHYTQKSLSLSPG
light: DIQMTQSPPALSASVGDRVTITCRASQDINDWLAWYQHKPGKAPKLLIYDASSLESGVPLRFSGSGSGTEFTLTISSLQPDDFATYYCQQKYSAPQVTFGQGTRLEIKRTVAAPSVFIFPPSDEQLKSGTASVVCLLNNFYPREAKVQWKVDNALQSGNSQESVTEQDSKDSTYSLSSTLTLSKADYEKHKVYACEVTHQGLSSPVTKSFNRGEC

- Vδ1 TCR down-regulation (A375 co-culture): % change (at saturation) [4]: 34%
- Vδ1 TCR down-regulation (A375 co-culture): EC95 [4]: 5.9 nM
- Vδ1 TCR down-regulation (A431 co-culture): % change (at saturation) [4]: 80.3%
- Vδ1 TCR down-regulation (A431 co-culture): EC95 [4]: 0.0263 nM
B3: ADT1-4/ADT3-1 (bispecific antibody, human IgG1)
heavy: QVQLQQSGPGLVKPSQTLSLTCAISGDSVSSKSAAWNWIRQSPSRGLEWLGRTYYRSKWSTDYAASVKSRITINPDTSKNQLSLQLNSVTPEDTAVYYCARTWSGYVDVWGQGTLVTVSSASTKGPSVFPLAPSSKSTSGGTAALGCLVKDYFPEPVTVSWNSGALTSGVHTFPAVLQSSGLYSLSSVVTVPSSSLGTQTYICNVNHKPSNTKVDKKVEPKSCDKTHTCPPCPAPELAGAPSVFLFPPKPKDTLMISRTPEVTCVVVDVSHEDPEVKFNWYVDGVEVHNAKTKPREEQYNSTYRVVSVLTVLHQDWLNGKEYKCKVSNKALPAPIEKTISKAKGQPREPQVYTLPPSRDETDDGPVSLTCLVKGFYPSDIAVEWESTYGPENNYKTTPPVLDSDGSFFLYSKLTVSYWRWYKGNVFSCSVMHEALHNHYTQKSLSLSPG
light: ASDIQMTQSPPALSASVGDRVTITCRASQDINDWLAWYQHKPGKAPKLLIYDASSLESGVPSRFSGSGSGTEFTLTISSLQPDDFATYYCQQSYSTPQVTFGQGTRLEIKRTAAAPSVFIFPPSDEQLKSGTASVVCLLNNFYPREAKVQWKVDNALQSGNSQESVTEQDSKDSTYSLSSTLTLSKADYEKHKLYACEVTHQGLSSPVTKSFNRGEC
